# Entries after “also recorded” stand apart in the source; their conditions may differ.
# B1: MPO: MPO purified from human PMNs (Calbiochem), 125I-labeled for binding and permeability (protein, listed as Homo sapiens)
# chain: MGVPFFSSLRCMVDLGPCWAGGLTAEMKLLLALAGLLAILATPQPSEGAAPAVLGEVDTSLVLSSMEEAKQLVDKAYKERRESIKQRLRSGSASPMELLSYFKQPVAATRTAVRAADYLHVALDLLERKLRSLWRRPFNVTDVLTPAQLNVLSKSSGCAYQDVGVTCPEQDKYRTITGMCNNRRSPTLGASNRAFVRWLPAEYEDGFSLPYGWTPGVKRNGFPVALARAVSNEIVRFPTDQLTPDQERSLMFMQWGQLLDHDLDFTPEPAARASFVTGVNCETSCVQQPPCFPLKIPPNDPRIKNQADCIPFFRSCPACPGSNITIRNQINALTSFVDASMVYGSEEPLARNLRNMSNQLGLLAVNQRFQDNGRALLPFDNLHDDPCLLTNRSARIPCFLAGDTRSSEMPELTSMHTLLLREHNRLATELKSLNPRWDGERLYQEARKIVGAMVQIITYRDYLPLVLGPTAMRKYLPTYRSYNDSVDPRIANVFTNAFRYGHTLIQPFMFRLDNRYQPMEPNPRVPLSRVFFASWRVVLEGGIDPILRGLMATPAKLNRQNQIAVDEIRERLFEQVMRIGLDLPALNMQRSRDHGLPGYNAWRRFCGLPQPETVGQLGTVLRNLKLARKLMEQYGTPNNIDIWMGGVSEPLKRKGRVGPLLACIIGTQFRKLRDGDRFWWENEGVFSMQQRQALAQISLPRIICDNTGITTVSKNNIFMSNSYPRDFVNCSTLPALNLASWREAS
# modifications: 125I label
# What was measured:
# [1] = target: T1, HSA (Homo sapiens, UniProt P02768); assay: 125I-HSA binding to MPO peptides immobilized on nitrocellulose (dot-blot); details: immobilized peptide
# T1 construct: purchased Sigma (St. Louis, Mo.)
# Description: ^125I-labeling and binding of proteins: HSA and MPO were labeled with ^125I using IODO-GEN reagent from Pierce (Rockford, Ill.). ^125I HSA binding to the MPO peptides was determined by dot-blot analysis. Peptides were immobilized on nitrocellulose membranes and non-specific binding was blocked with bovine γ-globulin (2 mg/ml in PBS) for 1 h at 22° C. Membranes were washed 2× with PBS and incubated with ^125I-labeled HSA (0.3 pM) for 2 h at 22° C. Membranes were then washed 4× with PBS containing 0.05% Tween-20 (PBST) and autoradiography was performed. In some experiments, the membranes were directly counted to determine the membrane-associated radioactivity.
# Peptides were immobilized on nitrocellulose membranes and then incubated with 1 ml of 0.3 μM ^125I-HSA in PBS for 2 h. Other details were described in Example 1. Non-specific binding was determined by incubating membranes with ^125I-HSA in the absence of any peptides. Results are shown mean±S.E. for three separate experiments made in triplicate.
# [2] = system: albumin; assay: Albumin binding of ELKSLNPRWDGE, albumin from a variety of sources; details: e.g., human, porcine, murine
# [3] = system: BLMVEC; assay: MPO uptake and localization by confocal immunostaining; format: cell-based, bovine; details: for MPO staining (localization): 30 min 37° C.
# Description: FIG. 3A-FIG. 3E: Albumin induces the endocytosis of MPO in endothelial cells. BLMVEC grown on glass coverslips were incubated with buffer C for 12 h. Cells were then incubated with buffer C containing 25 nM MPO alone or in combination with Alexa-594 BSA (50 μg/ml) and unlabeled BSA (1 mg/ml) for 30 min at 37° C. Cells were washed 3×, fixed with 4% PFA in HBSS for 30 min at 22° C., and blocked with 5% goat serum in HBBS containing 0.1% Triton X-100 (blocking buffer) for 30 min at 22° C. After washing, the cells were incubated with anti-MPO Ab diluted (1:1000) in blocking buffer at 4° C. overnight. After washing 2×, cells were incubated with Alexa-488 labeled (green) secondary Ab in blocking buffer for 60 min at 4° C. Confocal images were obtained as described in Methods. […] There was a marked co-localization of […] (green) and Alexa-594 BSA (red) in merged image (yellow; right). FIG. 3B: Albumin induces the co-localization of MPO with cholera toxin subunit B (CTB) in endothelial cells. BLMVEC were grown as described in FIG. 3A. Cells were incubated with Alexa 488-CTB; (20 ug/ml), MPO (25 nM), and BSA (1 mg/ml) in buffer C for 30 min at 37° C. After this, cells were washed, fixed, permeabilized, and stained with anti-MPO Ab and AlexaA594 labeled secondary antibody. Cells were visualized by confocal microscopy after mounting. Confocal images of CTB (green-left panel) and anti-MPO Ab staining (red-middle panel) in vesicles are shown. […] There was marked merging in vesicles in the YZ projection image (far left panel) and single frame (X-Y) or single line (Y-Z and X-Z) images (left panel) observed in the presence of albumin compared to the green CTB-positive/MPO negative vesicles observed in the absence albumin (right and far right panels). […]
# Immunostaining: Cellular localization of MPO, albumin, CTB (a caveolae marker), and caveolin-1 was determined by confocal microscopy (Minshall et al., J. Cell Biol., 150:1057-1069 (2000); John et al., Am. J. Physiol. Lung Cell Mol. Physiol., 284:L187-L196 (2003)). […] MPO uptake in BLMVEC was determined in the presence or absence of albumin or CTB. […]
# [4] = system: BLMVEC monolayers; assay: Transendothelial 125I-MPO permeability, Transwell filters; format: cell-based, bovine
# Description: FIG. 2A-FIG. 2C: Albumin increases the binding of ^125I-MPO to endothelial cell surface. The binding of ^125I-MPO to BLMVEC was measured as described in Example 1. Results are shown as mean SEM of three separate experiments made in a triplicate binding assay. *, indicates difference from control (p<0.05); **, (p<0.001) different from control (i.e., binding was determined in the presence of 5 mg/ml γ-globulin). […] FIG. 2B: Effects of albumin on time course transendothelial transport of MPO. BLMVEC grown on microporous Transwell filters were used to determine transendothelial transport of MPO as described in Example 1. […] The transendothelial ^125I-MPO clearance rate was calculated as described (24, 27). *, indicates difference from control or CD-treated group (p<0.001). […] Lung preparations were perfused at 37° C. with Krebs-albumin solutions at the indicated concentrations; MPO PS (μl/min/g wet lung) was determined by perfusing ^125I-MPO for 10 min, and removing vascular tracer with Krebs for 6 min and bound tracer with cold (12° C.) acetate buffer (pH 4.5) for 3 min. ^125I-MPO PS increased 2-fold upon increasing [BSA] from 0.05 to 0.4 g/100 ml. […]
# Transendotlielial ^125I-MPO permeability: Transendothelial permeability of ^125I-MPO in BLMVEC monolayers was determined using Transwell filter units (24, 27). […]
# [5] = system: BLMVEC; assay: 125I-MPO binding to endothelial cell surface; format: cell-based, bovine; details: increasing BSA 1-50 mg/ml in binding buffer; 4° C., 1 h
# Description: (§1) FIG. 2A-FIG. 2C: Albumin increases the binding of ^125I-MPO to endothelial cell surface. The binding of ^125I-MPO to BLMVEC was measured as described in Example 1. Results are shown as mean SEM of three separate experiments made in a triplicate binding assay. *, indicates difference from control (p<0.05); **, (p<0.001) different from control (i.e., binding was determined in the presence of 5 mg/ml γ-globulin). […] FIG. 2B: Effects of albumin on time course transendothelial transport of MPO. BLMVEC grown on microporous Transwell filters were used to determine transendothelial transport of MPO as described in Example 1. To study the methyl-B-cyclodextrin (CD) effect, luminal chamber was incubated with 5.0 mM CD for 20 min prior to measuring ^125I-MPO permeability. […] The transendothelial ^125I-MPO clearance rate was calculated as described (24, 27). *, indicates difference from control or CD-treated group (p<0.001). […] Lung preparations were perfused at 37° C. with Krebs-albumin solutions at the indicated concentrations; MPO PS (μl/min/g wet lung) was determined by perfusing ^125I-MPO for 10 min, and removing vascular tracer with Krebs for 6 min and bound tracer with cold (12° C.) acetate buffer (pH 4.5) for 3 min. ^125I-MPO PS increased 2-fold upon increasing [BSA] from 0.05 to 0.4 g/100 ml. […]
# [6] = system: lung microvessels; assay: Pulmonary vascular 125I-MPO permeability x surface area (PS), isolated-perfused lung; set-up: species or system rat
# Description: as §1
molecule,measurement,setting,value
EARKIV,binding to HSA (in words),[1],no binding; also recorded: failed to bind
ELKSLNPRWDGE,ability to bind albumin from a variety of sources,[2],able to bind to albumin from any of a variety of sources
"GLATELGSLNPGWDGEGLYQEAGGIVGAMV [MPO-MT-peptide, mutant of MPO-WT-peptide, K and R replaced with G]",binding to HSA (in words),[1],failed to bind
"methyl-β-cyclodextrin [CD, reference compound]",effect on albumin-induced MPO uptake,[3]; 5.0 mM CD for 20 min at 37° C.,prevented the albumin-induced MPO uptake
same,effect on transport of 125I-MPO in the presence of albumin,[4]; CD 5.0 mM for 20 min,prevented the transport
B1,MPO staining (localization),[3]; 25 nM MPO plus 1 mg/ml BSA,markedly co-localized with albumin-containing vesicles
same,MPO staining (localization),"[3]; 25 nM MPO, absence of albumin",observed only on the cell surface
same,binding of 125I-MPO to the endothelial cell surface,[5],increased the binding
same,MPO PS at higher BSA concentrations,[6]; BSA 0.25 and 0.4 g/100 ml,did not increase further
same,increase in 125I-MPO PS,[6]; upon increasing [BSA] from 0.05 to 0.4 g/100 ml,2 fold
same,increase of transendothelial 125I-MPO permeability,"[4]; in the presence of albumin, compared to γ-globulin (5 mg/ml)",more than 2 fold
